The data set deals with the molecule itself. In words: crystal structure.

B1: C-terminal bZIP domain of human C/EBPβ (residues 269–344), wild type (domain or fragment)
chain: HMKHSDEYKIRRERNNIAVRKSRDKAKMRNLETQHKVLELTAENERLQKKVEQLSRELSTLRNLFKQLPEPLLASSGH
On to B1, for which the binding result is on record as “binds”.

B2: C-terminal bZIP domain of human C/EBPβ (residues 269–344), V285A variant (domain or fragment)
chain: HMKHSDEYKIRRERNNIAARKSRDKAKMRNLETQHKVLELTAENERLQKKVEQLSRELSTLRNLFKQLPEPLLASSGH
As to B2, the binding result is “binds”.

(Values after paper PMC6393304 (Nucleic Acids Research, 2018).)
